According to article PMC2962642, “Familial Glucocorticoid Receptor Haploinsufficiency by Non-Sense Mediated mRNA Decay, Adrenal Hyperplasia and Apparent Mineralocorticoid Excess”:

Biological target: hGRalpha-R469X (Homo sapiens, UniProt P04150 1-468)
Test: EMSA; 15 min at 25 C; 4.5% acrylamide/bisacrylamide (37:1) gel, 0.25x TBE (50 mM Tris, 50 mM boric acid, 1 mM EDTA); binding buffer and pH not stated (as in ref. 26)
Settings: protein: ivt; label: 32P-dCTP (Klenow fill-in); 5' overhangs AGCT, filled in by Klenow for the labeled probe

Chain of hGRalpha-R469X (P04150 1-468): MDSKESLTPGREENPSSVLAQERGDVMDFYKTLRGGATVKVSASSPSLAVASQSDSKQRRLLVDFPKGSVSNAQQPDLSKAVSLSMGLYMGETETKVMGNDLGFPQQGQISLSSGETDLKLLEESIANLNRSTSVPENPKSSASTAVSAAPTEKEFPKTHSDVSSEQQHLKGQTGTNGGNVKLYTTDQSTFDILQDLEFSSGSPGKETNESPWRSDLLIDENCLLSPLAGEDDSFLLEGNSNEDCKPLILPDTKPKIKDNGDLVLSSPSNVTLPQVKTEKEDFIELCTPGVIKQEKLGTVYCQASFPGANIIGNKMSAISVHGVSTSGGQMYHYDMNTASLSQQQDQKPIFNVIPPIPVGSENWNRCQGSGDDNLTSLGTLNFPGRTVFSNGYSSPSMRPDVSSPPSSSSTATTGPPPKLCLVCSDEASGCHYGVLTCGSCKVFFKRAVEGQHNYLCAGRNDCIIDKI

B1: GRE consensus probe (dsDNA)
DNA 1: AGCTGCTCAGCTAGAACACTCTGTTCTCTACT
DNA 2: AGCTAGTAGAGAACAGAGTGTTCTAGCTAGC
Does B1 bind?
Result: no binding
